We go through five molecules from article PMC10397247.

One assay has as its target T1, 4H342-bH.
T1 chain: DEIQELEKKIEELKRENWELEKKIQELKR
In words: two-hybrid library CCNG1.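 Further: natural log of median RNA to DNA barcode read ratio; higher means stronger binding.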

In the next assay the target is T2, 4H2937-bH.
T2 chain: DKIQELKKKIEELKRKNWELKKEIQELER
The experiment in a line: two-hybrid library CCNG1.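 Further: natural log of median RNA to DNA barcode read ratio; higher means stronger binding.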

A further assay deals with T3, 4H2883-bH.
T3 chain: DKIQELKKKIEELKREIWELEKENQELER
In words: two-hybrid library CCNG1.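 Further: natural log of median RNA to DNA barcode read ratio; higher means stronger binding.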

In the next assay the target is T4, 4H2696-bH.
T4 chain: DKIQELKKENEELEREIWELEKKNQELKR
In words: two-hybrid library CCNG1.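 Further: natural log of median RNA to DNA barcode read ratio; higher means stronger binding.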

For a further assay, the target named is T5, 4H491-bH.
T5 chain: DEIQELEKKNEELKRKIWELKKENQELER
The experiment in a line: two-hybrid library CCNG1.

In the next assay the target is T6, 4H48-bH.
T6 chain: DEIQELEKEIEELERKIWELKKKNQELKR
The experiment in a line: two-hybrid library CCNG1.

The next assay concerns the target T7, 4H19-bH.
T7 chain: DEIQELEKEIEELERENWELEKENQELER
The experiment in a line: two-hybrid library CCNG1.

A further assay has as its target T8, 4H2944-bH.
T8 chain: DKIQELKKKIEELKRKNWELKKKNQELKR
In words: two-hybrid library CCNG1.

For the next assay, the target named is T9, 4H2223-bH.
T9 chain: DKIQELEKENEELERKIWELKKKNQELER
In words: two-hybrid library CCNG1.

The target in another assay is T10, 4H121-bH.
T10 chain: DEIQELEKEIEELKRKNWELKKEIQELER
In words: two-hybrid library CCNG1.

For a further assay, the target named is T11, 4H477-bH.
T11 chain: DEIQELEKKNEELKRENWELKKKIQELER
The experiment in a line: two-hybrid library CCNG1.

The target in the next assay is T12, 4H2438-bH.
T12 chain: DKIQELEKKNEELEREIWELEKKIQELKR
In words: two-hybrid library CCNG1.

The next assay deals with T13, 4H3057-bH.
T13 chain: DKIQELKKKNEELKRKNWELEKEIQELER
The experiment in a line: two-hybrid library CCNG1.

In the next assay the target is T14, 4H2503-bH.
T14 chain: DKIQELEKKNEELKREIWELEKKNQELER
In words: two-hybrid library CCNG1.

A further assay has as its target T15, 4H2915-bH.
T15 chain: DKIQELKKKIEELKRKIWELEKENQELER
In words: two-hybrid library CCNG1.

A further assay has as its target T16, 4H3277-bH.
T16 chain: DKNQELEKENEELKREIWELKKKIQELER
In words: two-hybrid library CCNG1.

Another assay concerns the target T17, 4H2692-bH.
T17 chain: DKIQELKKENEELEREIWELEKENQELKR
In words: two-hybrid library CCNG1.

A further assay concerns the target T18, 4H741-bH.
T18 chain: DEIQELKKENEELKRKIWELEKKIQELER
The experiment in a line: two-hybrid library CCNG1.

The target of another assay is T19, 4H2717-bH.
T19 chain: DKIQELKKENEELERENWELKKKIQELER
In words: two-hybrid library CCNG1.

The target in the next assay is T20, 4H2143-bH.
T20 chain: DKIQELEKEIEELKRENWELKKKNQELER
The experiment in a line: two-hybrid library CCNG1.

For a further assay, the target named is T21, 4H2839-bH.
T21 chain: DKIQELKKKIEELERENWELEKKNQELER
In words: two-hybrid library CCNG1.

The target in a further assay is T22, 4H40-bH.
T22 chain: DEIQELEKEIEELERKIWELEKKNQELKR
The experiment in a line: two-hybrid library CCNG1.

The next assay has as its target T23, 4H2588-bH.
T23 chain: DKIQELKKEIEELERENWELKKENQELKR
The experiment in a line: two-hybrid library CCNG1.

The next assay deals with T24, 4H2134-bH.
T24 chain: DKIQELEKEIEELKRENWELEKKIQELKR
The experiment in a line: two-hybrid library CCNG1.

A further assay addresses T25, 4H348-bH.
T25 chain: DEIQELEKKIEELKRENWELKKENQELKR
In words: two-hybrid library CCNG1.

Another assay deals with T26, 4H319-bH.
T26 chain: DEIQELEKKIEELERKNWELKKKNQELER
In words: two-hybrid library CCNG1.

The target in the next assay is T27, 4H2473-bH.
T27 chain: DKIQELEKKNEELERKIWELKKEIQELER
In words: two-hybrid library CCNG1.

A further assay has as its target T28, 4H182-bH.
T28 chain: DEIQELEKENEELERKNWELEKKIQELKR
In words: two-hybrid library CCNG1.

Another assay has as its target T29, 4H492-bH.
T29 chain: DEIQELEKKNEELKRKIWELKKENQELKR
In words: two-hybrid library CCNG1.

In another assay the target is T30, 4H1449-bN.
T30 chain: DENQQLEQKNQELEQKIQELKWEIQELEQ
In words: two-hybrid library CCNG1.

Another assay concerns the target T31, 4H1222-bN.
T31 chain: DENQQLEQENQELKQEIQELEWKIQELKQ
The experiment in a line: two-hybrid library CCNG1.

Another assay deals with T32, 4H906-bN.
T32 chain: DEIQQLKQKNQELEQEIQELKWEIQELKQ
In words: two-hybrid library CCNG1.

For the next assay, the target named is T33, 4H3926-bN.
T33 chain: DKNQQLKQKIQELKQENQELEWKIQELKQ
The experiment in a line: two-hybrid library CCNG1.

A further assay has as its target T34, 4H3628-bN.
T34 chain: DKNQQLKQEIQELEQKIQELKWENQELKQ
The experiment in a line: two-hybrid library CCNG1.

The next assay has as its target T35, 4H1985-bN.
T35 chain: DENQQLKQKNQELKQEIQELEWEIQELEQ
The experiment in a line: two-hybrid library CCNG1.

In the next assay the target is T36, 4H3974-bN.
T36 chain: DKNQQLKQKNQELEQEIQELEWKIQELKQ
In words: two-hybrid library CCNG1.

Another assay deals with T37, 4H1338-bN.
T37 chain: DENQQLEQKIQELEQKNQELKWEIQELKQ
In words: two-hybrid library CCNG1.

The target in the next assay is T38, 4H1359-bN.
T38 chain: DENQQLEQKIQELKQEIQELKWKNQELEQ
The experiment in a line: two-hybrid library CCNG1.

A further assay concerns the target T39, 4H1804-bN.
T39 chain: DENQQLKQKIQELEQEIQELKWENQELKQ
The experiment in a line: two-hybrid library CCNG1.

A further assay addresses T40, 4H3638-bN.
T40 chain: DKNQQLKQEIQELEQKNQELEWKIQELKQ
In words: two-hybrid library CCNG1.

Another assay deals with T41, O9-bH.
T41 chain: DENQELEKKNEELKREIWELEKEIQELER
The experiment in a line: two-hybrid library CCNG1.

The target of the next assay is T42, 4H3129-bN.
T42 chain: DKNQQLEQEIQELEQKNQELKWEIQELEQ
In words: two-hybrid library CCNG1.

The next assay addresses T43, 4H363-bN.
T43 chain: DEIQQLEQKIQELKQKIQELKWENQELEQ
In words: two-hybrid library CCNG1.

The target in the next assay is T44, 4H3631-bN.
T44 chain: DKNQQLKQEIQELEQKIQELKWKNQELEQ
In words: two-hybrid library CCNG1.

For another assay, the target named is T45, 4H3817-bN.
T45 chain: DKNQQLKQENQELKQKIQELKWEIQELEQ
In words: two-hybrid library CCNG1.

For another assay, the target named is T46, 4H570-bN.
T46 chain: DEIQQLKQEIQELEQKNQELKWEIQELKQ
In words: two-hybrid library CCNG1.

For the next assay, the target named is T47, 4H1710-bN.
T47 chain: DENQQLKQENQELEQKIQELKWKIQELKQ
The experiment in a line: two-hybrid library CCNG1.

The target in the next assay is T48, 4H3613-bN.
T48 chain: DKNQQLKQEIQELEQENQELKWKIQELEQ
The experiment in a line: two-hybrid library CCNG1.

In the next assay the target is T49, 4H3414-bN.
T49 chain: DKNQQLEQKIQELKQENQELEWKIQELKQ
In words: two-hybrid library CCNG1.

Another assay deals with T50, 4H1629-bN.
T50 chain: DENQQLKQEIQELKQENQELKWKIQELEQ
In words: two-hybrid library CCNG1.

A further assay deals with T51, 4H584-bN.
T51 chain: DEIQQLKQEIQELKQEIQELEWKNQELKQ
In words: two-hybrid library CCNG1.

Another assay deals with T52, 4H3817-bA.
T52 chain: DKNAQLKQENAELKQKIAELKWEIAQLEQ
In words: two-hybrid library CCNG1.

In the next assay the target is T53, 4H1899-bN.
T53 chain: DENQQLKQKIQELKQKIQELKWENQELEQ
In words: two-hybrid library CCNG1.

The target in the next assay is T54, 4H1373-bN.
T54 chain: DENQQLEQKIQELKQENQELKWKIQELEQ
The experiment in a line: two-hybrid library CCNG1.

In a further assay the target is T55, 4H1393-bN.
T55 chain: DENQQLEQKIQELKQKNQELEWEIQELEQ
In words: two-hybrid library CCNG1.

The target in another assay is T56, 4H3172-bN.
T56 chain: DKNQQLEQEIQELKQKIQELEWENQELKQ
The experiment in a line: two-hybrid library CCNG1.

For the next assay, the target named is T57, 4H1348-bN.
T57 chain: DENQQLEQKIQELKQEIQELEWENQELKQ
The experiment in a line: two-hybrid library CCNG1.

The target in another assay is T58, 4H3858-bN.
T58 chain: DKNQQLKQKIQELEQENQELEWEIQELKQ
In words: two-hybrid library CCNG1.

In the next assay the target is T59, 4H1544-bN.
T59 chain: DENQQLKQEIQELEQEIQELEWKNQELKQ
In words: two-hybrid library CCNG1.

The target in the next assay is T60, 4H850-bN.
T60 chain: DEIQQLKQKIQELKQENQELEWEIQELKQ
In words: two-hybrid library CCNG1.

In a further assay the target is T61, 4H619-bN.
T61 chain: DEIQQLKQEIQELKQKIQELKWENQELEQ
In words: two-hybrid library CCNG1.

The target in a further assay is T62, Core_NINN-es_KEEE.
T62 chain: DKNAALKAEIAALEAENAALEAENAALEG
In words: two-hybrid library CCmax. The conditions noted are these: mean of both orientations.

The target in a further assay is T63, Core_INNN-es_KEEE.
T63 chain: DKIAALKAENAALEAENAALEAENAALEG
In words: two-hybrid library CCmax. Conditions: mean of both orientations.

On to DEIQELEKEIEELERENWELEKENQELER [4H19-bH], for which the interaction score with 4H342-bH was -0.785; with 4H2937-bH it was 0.634; with 4H2883-bH it was 1.05; in the assay with 4H2696-bH it was 0.41; with 4H491-bH, 0.299; in the assay with 4H48-bH, -1.56. The figures for the interaction score in the assay with 4H19-bH and with 4H2944-bH were -0.777 and 1.17, respectively.

In the case of DEIQELEKEIEELKRKNWELKKEIQELER [4H121-bH], the interaction score in the assay with 4H2223-bH is 1.48; in the assay with 4H121-bH, -0.364; with 4H477-bH it was -1.3; in the assay with 4H2438-bH it was 1.45; with 4H3057-bH, 0.547; in the assay with 4H2503-bH it was -0.913. The interaction score with 4H2915-bH is 0.235; in the assay with 4H3277-bH it was -0.678; with 4H2692-bH, 0.482; with 4H741-bH, -0.43; with 4H2717-bH, 0.068; with 4H2143-bH it was 0.472. Besides, the interaction score was 1.02 with 4H2839-bH; -1.44 in the assay with 4H40-bH; -1.11 in the assay with 4H2588-bH; 1.11 with 4H2134-bH; -0.636 with 4H348-bH; -1.11 in the assay with 4H319-bH. Also, the interaction score with 4H2473-bH is -0.404; in the assay with 4H182-bH, 0.0625; with 4H492-bH, -0.574.

Take DENQQLEQENQELKQEIQELEWKIQELKQ [4H1222-bN]: the interaction score with 4H1449-bN was -0.277; with 4H1222-bN, -1.63; with 4H906-bN, -1.3; with 4H3926-bN it was 0.755; with 4H3628-bN it was -0.764; with 4H1985-bN it was -2.04. Besides, the interaction score with 4H3974-bN is -0.957; in the assay with 4H1338-bN, 0.344; with 4H1359-bN it was 0.554; with 4H1804-bN, 0.407; with 4H3638-bN, 0.921; with O9-bH, 1.11. For the same molecule, the interaction score with 4H3129-bN was -0.201; with 4H363-bN it was -0.189; in the assay with 4H3631-bN it was 0.357; in the assay with 4H3817-bN, 2.15; in the assay with 4H570-bN it was -0.0662; in the assay with 4H1710-bN it was 0.715. The interaction score was 0.482 with 4H3613-bN; 0.105 with 4H3414-bN; 0.612 with 4H1629-bN; -0.959 in the assay with 4H584-bN; 1.4 with 4H3817-bA; -0.657 with 4H1899-bN. Moreover, the interaction score with 4H1373-bN is -0.0597; with 4H1393-bN, -0.718; with 4H3172-bN, -0.0903; with 4H1348-bN it was -2.2; with 4H3858-bN, -0.767; with 4H1544-bN, -1.38. The interaction score with 4H850-bN was 0.741; with 4H619-bN it was -0.785.

With DENAALEAKIAALKAKNAALKAKNAALKG [Core_NINN-es_EKKK], in the assay with Core_NINN-es_KEEE, the interaction score is 2.12.

DEIAALEAKNAALKAKNAALKAKNAALKG [Core_INNN-es_EKKK] registered an interaction score with Core_INNN-es_KEEE of 1.79.
